According to PMC6889138:
Blank lines part the entries; values can stand above or below the substance they belong to.

Assays:
[1] = biological target: ^MsmClpP1 R168A, purified (Mycobacterium smegmatis); assay: AUC; oligomeric state of each purified protein alone, in the absence of z-LL (Fig. S4)
[2] = biological target: ^MsmClpP1 Y110A (Mycobacterium smegmatis); assay: native gel or EMSA; 5 µg of purified protein on 4-16% Native-PAGE Novex Bis-Tris gels, stained with Coomassie Brilliant Blue R250
[3] = biological target: ^MsmClpP1, wild type, purified (Mycobacterium smegmatis); assay: as above
[4] = biological target: ^MsmClpP1, wild type, purified (Mycobacterium smegmatis); assay: crystal structure; ^MsmClpP1 crystallised by vapor diffusion at 20 °C from sodium malonate pH 6.6-6.8; one heptamer in the asymmetric unit, tetradecamer from crystallographically related heptamers; 2.0 Å
[5] = biological target: ^MsmClpP1, wild type, purified (Mycobacterium smegmatis); assay: AUC; oligomeric state of each purified protein alone, in the absence of z-LL (Fig. S4)
[6] = biological target: ^MsmClpP2 R189A, purified (Mycobacterium smegmatis); assay: as above
[7] = biological target: ^MsmClpP2, wild type, purified (Mycobacterium smegmatis); assay: as above

stoichiometry N [1]: 7
Substance: ^MsmClpP1 R168A, purified (enzyme)

stoichiometry N [2]: 14
Substance: ^MsmClpP1 Y110A (enzyme)

stoichiometry N [3]: 14
stoichiometry N [4]: 14
stoichiometry N [5]: 7
Substance: ^MsmClpP1, wild type, purified (enzyme)

stoichiometry N [6]: 7
Substance: ^MsmClpP2 R189A, purified (enzyme)

stoichiometry N [7]: 7
Substance: ^MsmClpP2, wild type, purified (enzyme)
